Patent US20230295310A1 (ABCELLERA BIOLOGICS, published 2023)
Changes are numbered by the printed parent chain.

B1: mAb 157 (antibody, V domains shown)
VH: EVQLVESGGGLVKTGGSLRLSCVASGFSFKKAWMNWVRQAPGKGLEWVGRIKRTADGGATDYAAPVKGRFTLSRDDSKNTLYLQMNSLKTEDTAVYYCTTLDSSSWYVGYYYMDVWGKGTTVTVSS
VL: DIHMTQAPSSVSASVGDRVTFTCRASQDINNWLAWYQQKPGKAPKLLIYTASSLQSGVPSRFSGSGSGTDFTLTISSLQPEDFATYYCQQAHSLPITFGQGTRLGIK
B2: mAb 164 (antibody, V domains shown)
VH: B1 VH with T54N, A55T, A59T, T60A, N79K, Y82F, W106Y
VL: B1 VL with H3Q, A7S, F21I, N30K, S76G, G105E
B3: mAb 169 (antibody, V domains shown)
VH: B1 VH with T54N, A55T, A59T, T60A, N79K, Y82F, W106Y
VL: B1 VL with H3Q, A7S, T20I, F21I, T72I, S76G, G105E
B4: mAb 165 (antibody, V domains shown)
VH: B1 VH with T54N, A55T, A59T, T60A, N79R, W106R
VL: B1 VL with H3Q, A7S, T20I, F21I, A43V, S76G, G105E
B5: mAb 166 (antibody, V domains shown)
VH: B1 VH with K43R, T54N, A55T, A59T, T80M, W106L
VL: B1 VL with H3Q, A7S, F21I, Y87F, G105E, K107T
B6: mAb 163 (antibody, V domains shown)
VH: B1 VH with A40V, T54N, A55T, A59T, T60A, N79K, Y82F, W106Y
VL: B1 VL with H3Q, A7S, T20I, F21I, S76G, G105E
B7: mAb 167 (antibody, V domains shown)
VH: EVHLVESGGGLVQPGRSLRLSCAASGFTFDDYAMHWVRQAPGKGLEWVSGISWNSGTIGYADSVKGRFTISRDNAKNSLYLEMNSLRAEDTALYYCAKDSSGYGHYYHYYIDVWGTGTTVTVSS
VL: EIVMTQSPATLSVSPGGRATLSCRASQSVGSNLAWYQQKPGQAPRLLIYDASTRATGIPARFRGSGSGTEFTLTISGLQSEDFAVYYCQLYYNWPHFGQGTRLEIK
B8: mAb 178 (antibody, V domains shown)
VH: B7 VH with H3Q, A33T, G50D, E82Q, A97V, H108K, I111M, T116K
VL: DIQMTQSPSSLSASVGDRVTITCRASQSISNYLNWYQQKAGKVPKVLIYGSSSLQSGVPSRFSGSGSGTDFTLTISSLQPEDFASYYCQQTYSSPLTFGGGTKVDFK
B9: mAb 176 (antibody, V domains shown)
VH: EVELVESGGGLVQPGRSLRLSCAASGFKFDDYTMHWVRLPPGKGLEWVSGISWNSGTIDYGDSVKGRFTISRDNAKNSLYLQMNSLRVEDTALYYCAKDTSGYGHYFYYYMDVWGKGTTVTVSS
VL: DIQMTQSPSSLSASIGDRVSITCRTSQIINNYLNWYQQKPGKAPKVLIYSASSLQSGVPSRFSGSGSGTDFTLTINSLQPEDFATYYCQQSYNFPITFGQGTRLELK
B10: mAb 177 (antibody, V domains shown)
VH: EVQLVESGGGLVQPGMSLRLSCAASGFTFDDYTMHWVRQSPGKGLEWVAGISWNSGTIGYGDSMKGRFTISRDNAKNSLDLQMNSLRVEDTALYYCAKDTSGYGHYYYYFMDVWGKGTTVTVSS
VL: B9 VL with V46L, I75L, N76S, Y87F
B11: mAb 158 (antibody, V domains shown)
VH: EVQLVESGGGLVQPGRSLRLSCAASGFTFADYTMHWVRQVPGKGLEWVSGISWNSGSVDYADSVKGRFTISRDNAKKTLYLQMNSLRAEDTALYYCAKDSSGYGHYYFYYLDVWGKGTTVTVSS
VL: EIVMTQSPATLSVSPGERATLSCRATQSVSSNLAWYQQKPGQAPRLLIYSTSTRATGIPARFSGSRSGTEFTLTISSLQSEDSAVYYCQQYNNWPHFGQGTRLEIK
B12: mAb 161 (antibody, V domains shown)
VH: B11 VH with F27I, V40A, V58I, S85R
VL: B11 VL with T26S, S31N
B13: mAb 162 (antibody, V domains shown)
VH: B7 VH with H3Q, D31N, T57S, M83L, H105Y, H108N, I111M, T116K
VL: B7 VL with G17E, G30R, D50G, R61K, R63S, G77S, L90Y
B14: mAb 159 (antibody, V domains shown)
VH: B11 VH with A30N, D31G, D59G, K77N, T78S, Y80F, F108Y, L111M
VL: B7 VL with G17E, G30R, S31N, D50G, R63S, G77S, V85L, Y92N
B15: mAb 160 (antibody, V domains shown)
VH: B11 VH with A24V, A30N, V58I, D59G, K77N, T78S, Y95F, F108Y, L111M, K116R
VL: B7 VL with G17E, G30R, S31K, D50G, R63S, G77S, Y92N
B16: mAb 171 (antibody, V domains shown)
VH: B11 VH with V40A, K43Q, V58I, T69I
VL: B11 VL with T26S
B17: mAb 173 (antibody, V domains shown)
VH: B11 VH with A30D, G50D, D59G, K77N, T78S, A97V, Y107F, F108H, L111M
VL: DIQMTQSPSSLSASVGDRVTITCRASQSISNYLNWYQVKPGKAPKVLIYAASSLQSGVPSRFSGSGSGTDFTLTISSLQPEDFVSYYCHQSYNTPITFGQGTRLEIK
B18: mAb 52 (antibody, V domains shown)
VH: QVQLVQSGAEVKKPGASVKVSCKASGYTFTSHDINWVRQATGQGLEWMGWLNPNSGKTGYAQKFQGRVTMARDTSMYTADMELSSLRFEDTAVYYCARVGHYDMWPGFFSFDYWGQGTLVTVSS
VL: DIQMTQSPSSLSASVGDRIIITCRASQDIRNDLGWYQQKPGKAPKRLIYAASSLQSGVPSRFSGSRSGTEFTLTISSLHPEDFATYYCLQHRSYPYTFGQGTNLEIK
B19: mAb 53 (antibody, V domains shown)
VH: QVQLVQSGAEVKKPGASVKVSCKASGYTFTSYDINWVRQATGQGLEWMGWMNPKSGKTGYAQKFQGRITMTRNTPISTVYMDLSSLRSEDTAVYYCAREGHYDFWTGYYSFDYWGQGTLVTVSS
VL: B18 VL with I19V, I20T, D28G, K39T, R66G, H79Q, R92Y, N103K
B20: mAb 170 (antibody, V domains shown)
VH: EVQLVESGGGLVRPGRSLRLSCAASGFTFDDYTMHWVRQAPGKGLEWVSGISWNSGSIGYADSVKGRFTISRDNAKNSLYLQMNSLRAEDTALYYCSKDSSGYGYYLNYSLDVWGKGTTVTVSS
VL: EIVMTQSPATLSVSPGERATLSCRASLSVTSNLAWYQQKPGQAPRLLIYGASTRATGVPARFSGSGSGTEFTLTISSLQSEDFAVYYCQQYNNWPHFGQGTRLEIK
B21: mAb 172 (antibody, V domains shown)
V domain 1: EVQLVESGGGLVQPGRSLRLSCTTSGFTFDDYTMHWVRQVPGKGLEWVSDISWNSGSVGYADSVKGRFTISRDNAKNSLYLQMNSLRAEDTALYYCVKDSSGYGHYFHYYMDVWGKGTTVTVSS
V domain 2: B21 V domain 1
B22: mAb 174 (antibody, V domains shown)
VH: EVQLVESGGGLVQPGGSLRLSCAASGFTFSSNWMSWVRQAPGKGLEWVANIKQDGSEKYSVDSVKGRFTISRDNAKNSLYLQMNSLRAEDTAVYYCARDRSRNYYWYFDLWGRGTLVTVSS
VL: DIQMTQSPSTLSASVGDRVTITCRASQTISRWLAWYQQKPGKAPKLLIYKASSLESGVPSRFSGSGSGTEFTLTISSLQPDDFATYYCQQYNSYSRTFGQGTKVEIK
B23: mAb 175 (antibody, V domains shown)
VH: B22 VH with Q3E, S60Y, Q82K, R100C, R102S, Y104W
VL: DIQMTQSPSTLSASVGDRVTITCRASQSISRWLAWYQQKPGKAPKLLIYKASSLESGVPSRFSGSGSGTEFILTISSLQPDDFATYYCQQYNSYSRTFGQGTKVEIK

The binders below were run against human CD3 (human, UniProt P07766 23-207; P04234 22-171; P09693 23-182) (assay: cell-based or functional assay).
Chain of human CD3 (P07766 23-207, chain 1 of 3): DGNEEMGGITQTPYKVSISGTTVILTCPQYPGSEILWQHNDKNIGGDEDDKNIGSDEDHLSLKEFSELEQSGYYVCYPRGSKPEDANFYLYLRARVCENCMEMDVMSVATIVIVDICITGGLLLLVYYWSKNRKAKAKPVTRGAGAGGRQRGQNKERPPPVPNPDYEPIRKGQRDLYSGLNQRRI
Chain of human CD3 (P04234 22-171, chain 2 of 3): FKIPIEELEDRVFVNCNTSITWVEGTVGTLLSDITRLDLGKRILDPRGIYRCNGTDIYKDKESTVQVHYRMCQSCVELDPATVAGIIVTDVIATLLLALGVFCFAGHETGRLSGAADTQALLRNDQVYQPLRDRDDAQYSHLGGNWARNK
Chain of human CD3 (P09693 23-182, chain 3 of 3): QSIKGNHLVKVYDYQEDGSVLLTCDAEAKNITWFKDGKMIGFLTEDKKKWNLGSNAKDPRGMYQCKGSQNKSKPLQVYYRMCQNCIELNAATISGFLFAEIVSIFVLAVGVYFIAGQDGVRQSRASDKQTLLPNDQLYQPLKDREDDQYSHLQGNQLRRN

CD4 EC50 (nM); CD69/CD25 on human T cells, plate-coated antibody | CD8 EC50 (nM); CD69/CD25 on human T cells, plate-coated antibody | Binder
6.42 nM | 6.57 nM | B1
6.84 nM | 6.62 nM | B2
6.49 nM | 6.67 nM | B3
6.48 nM | 6.57 nM | B4
10.5 nM | 10.6 nM | B5
6.3 nM | 6.99 nM | B6
6.3 nM | 6.36 nM | B7
12.6 nM | 12.6 nM | B8
6.38 nM | 6.37 nM | B9
14.3 nM | 14.2 nM | B10
6.67 nM | 6.62 nM | B11
6.76 nM | 7.89 nM | B12
12.6 nM | 12.7 nM | B13
12 nM | 11.9 nM | B14
6.95 nM | 8.47 nM | B15
6.86 nM | 6.71 nM | B16
12.5 nM | 12.3 nM | B17
8.79 nM | 9.48 nM | B18
18.3 nM | 18.3 nM | B19
14.6 nM | 15.1 nM | B20
23.2 nM | 22.9 nM | B21
19.5 nM | 19.4 nM | B22
21.6 nM | 21.2 nM | B23
